According to patent US8217006B2, “Inhibiting GS-FDH to modulate no bioactivity” (Duke University, priority 2001, dated 2012):

Substrate: N[C@@H](CCC(=O)N[C@@H](CSN=O)C(=O)NCC(=O)O)C(=O)O
Assay: cells, lysate or membranes named
Conditions: other: purified protein from RAW 264.7 cells; pH 8.0

B1: mouse GS-FDH (Mus musculus) (protein)
chain: MANQVIRCKAAVAWEAGKPLSIEEIEVAPPKAHEVRIKILATAVCHTDAYTLSGADPEGCFPVILGHEGAGIVESVGEGVTKLKAGDTVIPLYIPQCGECKFCLNPKTNLCQKIRVTQGKGLMPDGTSRFTCKGKSVFHFMGTSTFSEYTVVADISVAKIDPSAPLDKVCLLGCGISTGYGAAVNTAKVEPGSTCAVFGLGGVGLAVIMGCKVAGASRIIGIDINKDKFAKAKEFGASECISPQDFSKSIQEVLVEMTDGGVDYSFECIGNVKVMRSALEAAHKGWGVSVVVGVAASGEEISTRPFQLVTGRTWKGTAFGGWKSVESVPKLVSEYMSKKIKVDEFVTGNLSFDQINQAFDLMHSGDSIRTVLKM
With B1 the Km was 20 µM and the kcat was 5,600 min^−1.
